Here are results for two molecules from patent publication KR20190026632A (dated 2019).

One assay deals with T1, His-WRS (UniProt P23381 1-471, limits assumed).
T1 construct: not shown: His tag
T1 sequence (looked up): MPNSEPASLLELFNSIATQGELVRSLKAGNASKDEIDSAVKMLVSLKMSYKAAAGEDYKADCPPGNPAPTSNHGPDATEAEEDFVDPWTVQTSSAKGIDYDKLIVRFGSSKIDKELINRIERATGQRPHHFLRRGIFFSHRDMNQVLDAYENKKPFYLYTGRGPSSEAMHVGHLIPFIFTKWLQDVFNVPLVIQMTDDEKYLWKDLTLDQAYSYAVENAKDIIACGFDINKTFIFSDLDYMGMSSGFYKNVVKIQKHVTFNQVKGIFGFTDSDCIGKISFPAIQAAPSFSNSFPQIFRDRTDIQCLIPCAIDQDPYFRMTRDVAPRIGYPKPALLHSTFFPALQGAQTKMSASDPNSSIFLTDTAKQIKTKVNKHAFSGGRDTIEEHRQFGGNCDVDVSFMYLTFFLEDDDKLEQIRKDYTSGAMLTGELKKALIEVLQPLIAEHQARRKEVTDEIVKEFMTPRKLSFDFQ
Put plainly: ELISA; protein coated at 1 μg/ml, OD 450 nm. (In general: In an ELISA, binding on a coated surface is turned into a signal by an enzyme label.)

The next assay concerns the target T2, His-GRS (UniProt P41250 55-739).
T2 construct: not shown: His tag
T2 sequence (looked up): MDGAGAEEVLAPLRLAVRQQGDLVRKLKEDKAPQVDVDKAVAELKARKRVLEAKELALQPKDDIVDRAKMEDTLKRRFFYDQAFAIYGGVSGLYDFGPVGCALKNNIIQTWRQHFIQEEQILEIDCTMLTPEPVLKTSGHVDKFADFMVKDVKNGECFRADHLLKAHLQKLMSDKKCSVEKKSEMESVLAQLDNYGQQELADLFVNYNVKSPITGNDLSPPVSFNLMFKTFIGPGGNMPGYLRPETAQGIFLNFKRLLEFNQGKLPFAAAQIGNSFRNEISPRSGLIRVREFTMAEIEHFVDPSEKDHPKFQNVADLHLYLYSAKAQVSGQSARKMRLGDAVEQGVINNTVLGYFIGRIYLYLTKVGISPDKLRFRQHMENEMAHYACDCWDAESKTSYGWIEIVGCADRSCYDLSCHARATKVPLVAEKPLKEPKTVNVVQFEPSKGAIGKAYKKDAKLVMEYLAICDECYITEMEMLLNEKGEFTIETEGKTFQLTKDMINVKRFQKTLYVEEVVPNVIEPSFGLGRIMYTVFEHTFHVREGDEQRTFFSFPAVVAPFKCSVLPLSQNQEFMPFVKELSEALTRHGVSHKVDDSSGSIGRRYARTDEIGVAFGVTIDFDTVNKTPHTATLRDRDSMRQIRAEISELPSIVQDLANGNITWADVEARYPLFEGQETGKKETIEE
Nature of the assay: ELISA; protein coated at 1 μg/ml, OD 450 nm.

A further assay concerns the target T3, His-AIMP1 (UniProt Q12904 1-312, limits assumed).
T3 construct: not shown: His tag
T3 sequence (looked up): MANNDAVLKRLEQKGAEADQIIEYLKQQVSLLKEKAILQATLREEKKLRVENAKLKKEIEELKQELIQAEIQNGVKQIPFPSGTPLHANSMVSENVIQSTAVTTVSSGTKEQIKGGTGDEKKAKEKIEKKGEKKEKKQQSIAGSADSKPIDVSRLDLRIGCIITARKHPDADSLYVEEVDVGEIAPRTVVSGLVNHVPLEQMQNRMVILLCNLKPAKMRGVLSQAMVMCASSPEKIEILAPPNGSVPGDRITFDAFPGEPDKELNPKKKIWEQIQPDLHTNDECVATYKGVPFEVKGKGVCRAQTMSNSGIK
Put plainly: ELISA; protein coated at 1 μg/ml, OD 450 nm.

A further assay deals with T4, His-CRS (UniProt P49589 1-748).
T4 construct: not shown: His tag
T4 sequence (looked up): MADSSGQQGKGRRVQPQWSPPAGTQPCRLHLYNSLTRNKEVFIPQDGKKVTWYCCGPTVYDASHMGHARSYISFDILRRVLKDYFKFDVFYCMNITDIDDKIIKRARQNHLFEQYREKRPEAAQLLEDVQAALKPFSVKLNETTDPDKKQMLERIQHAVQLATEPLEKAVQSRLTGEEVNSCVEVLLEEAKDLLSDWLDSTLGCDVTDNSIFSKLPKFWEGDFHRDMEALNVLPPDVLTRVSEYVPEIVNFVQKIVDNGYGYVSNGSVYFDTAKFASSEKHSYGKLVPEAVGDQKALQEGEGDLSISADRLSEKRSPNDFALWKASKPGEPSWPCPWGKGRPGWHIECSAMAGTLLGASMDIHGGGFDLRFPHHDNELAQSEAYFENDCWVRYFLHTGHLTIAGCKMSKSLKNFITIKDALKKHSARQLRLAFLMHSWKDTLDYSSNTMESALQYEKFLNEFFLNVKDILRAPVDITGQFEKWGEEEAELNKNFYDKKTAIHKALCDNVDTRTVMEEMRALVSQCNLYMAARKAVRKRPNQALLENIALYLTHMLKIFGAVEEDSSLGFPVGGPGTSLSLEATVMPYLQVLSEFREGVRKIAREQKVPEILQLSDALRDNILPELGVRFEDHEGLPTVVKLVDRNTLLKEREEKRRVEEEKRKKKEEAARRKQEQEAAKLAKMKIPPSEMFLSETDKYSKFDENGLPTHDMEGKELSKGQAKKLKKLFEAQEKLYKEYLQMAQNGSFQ
Put plainly: ELISA; protein coated at 1 μg/ml, OD 450 nm.

The next assay concerns the target T5, His-KRS (UniProt Q15046 1-597).
T5 construct: not shown: His tag
Put plainly: ELISA; protein coated at 1 μg/ml, OD 450 nm.

Another assay has as its target T6, 34S-AIMP2 (UniProt Q13155 1-320).
T6 sequence (looked up): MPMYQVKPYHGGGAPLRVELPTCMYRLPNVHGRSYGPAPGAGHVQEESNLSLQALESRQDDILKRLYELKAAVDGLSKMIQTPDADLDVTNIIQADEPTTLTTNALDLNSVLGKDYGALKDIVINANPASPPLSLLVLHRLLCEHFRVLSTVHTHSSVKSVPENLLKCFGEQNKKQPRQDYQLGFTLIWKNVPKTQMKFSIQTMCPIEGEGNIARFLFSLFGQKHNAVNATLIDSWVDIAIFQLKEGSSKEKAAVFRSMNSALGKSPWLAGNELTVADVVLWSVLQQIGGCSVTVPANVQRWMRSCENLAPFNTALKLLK
Put plainly: ELISA; protein coated at 1 μg/ml, OD 450 nm.

Assay [1] has as its target T7, 메티오닐 티알엔에이 합성효소 (methionyl-tRNA synthetase, MRS) (human, UniProt P56192 1-900).
T7 construct: Full-length protein; In the cross-reactivity ELISA two preparations were coated (His-MRS, MRS full) and the result is told only for 'MRS'; In the western blots and cell staining it is the endogenous MRS of H460, PANC-1 and SCK cells; In SPR it was on the chip as MRS+AIMP3 co-purified protein; also called His-MRS; MRS full
T7 sequence: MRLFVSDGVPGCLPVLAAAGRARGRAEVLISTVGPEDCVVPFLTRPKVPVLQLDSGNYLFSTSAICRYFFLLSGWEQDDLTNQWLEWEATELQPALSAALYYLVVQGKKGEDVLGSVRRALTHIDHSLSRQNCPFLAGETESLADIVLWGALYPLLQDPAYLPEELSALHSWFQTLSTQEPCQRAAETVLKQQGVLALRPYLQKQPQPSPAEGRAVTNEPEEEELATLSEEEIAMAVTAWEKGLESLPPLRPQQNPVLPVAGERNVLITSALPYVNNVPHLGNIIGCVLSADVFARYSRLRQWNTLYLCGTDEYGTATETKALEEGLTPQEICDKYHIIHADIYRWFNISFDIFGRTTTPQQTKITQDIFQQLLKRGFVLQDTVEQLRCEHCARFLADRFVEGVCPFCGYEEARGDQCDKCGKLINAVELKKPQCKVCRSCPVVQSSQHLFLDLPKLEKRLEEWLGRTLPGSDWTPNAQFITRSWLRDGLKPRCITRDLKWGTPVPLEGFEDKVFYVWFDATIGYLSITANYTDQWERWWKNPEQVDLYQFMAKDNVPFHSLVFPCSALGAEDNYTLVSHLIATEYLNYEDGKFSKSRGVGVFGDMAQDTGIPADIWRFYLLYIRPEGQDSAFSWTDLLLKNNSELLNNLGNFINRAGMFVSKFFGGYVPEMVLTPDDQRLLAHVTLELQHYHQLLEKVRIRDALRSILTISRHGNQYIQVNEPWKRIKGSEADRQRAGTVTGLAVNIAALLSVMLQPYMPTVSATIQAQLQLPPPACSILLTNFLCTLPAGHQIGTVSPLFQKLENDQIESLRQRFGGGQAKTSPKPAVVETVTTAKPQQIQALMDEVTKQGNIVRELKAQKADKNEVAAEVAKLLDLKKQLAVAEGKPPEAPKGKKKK
Nature of the assay: SPR; MRS+AIMP3 co-purified protein on CM5 chip, antibody flowed at various concentrations. For orientation: Surface plasmon resonance follows binding to a sensor surface in real time, without labels.

Assay [2] deals with T8, AIMP3 (Aminoacyl tRNA synthetase complex-interacting multifunctional protein 3) (Homo sapiens (Human), UniProt O43324 1-174, limits assumed).
T8 construct: also called AIMP3 단백질
T8 sequence: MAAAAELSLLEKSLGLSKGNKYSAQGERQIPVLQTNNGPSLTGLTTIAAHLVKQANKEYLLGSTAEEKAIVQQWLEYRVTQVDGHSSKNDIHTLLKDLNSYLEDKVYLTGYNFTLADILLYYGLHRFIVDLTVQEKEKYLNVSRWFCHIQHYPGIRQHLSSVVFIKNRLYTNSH
Put plainly: SPR; AIMP3 on CM5 chip, antibody flowed at various concentrations.

T5 sequence (Q15046 whole entry): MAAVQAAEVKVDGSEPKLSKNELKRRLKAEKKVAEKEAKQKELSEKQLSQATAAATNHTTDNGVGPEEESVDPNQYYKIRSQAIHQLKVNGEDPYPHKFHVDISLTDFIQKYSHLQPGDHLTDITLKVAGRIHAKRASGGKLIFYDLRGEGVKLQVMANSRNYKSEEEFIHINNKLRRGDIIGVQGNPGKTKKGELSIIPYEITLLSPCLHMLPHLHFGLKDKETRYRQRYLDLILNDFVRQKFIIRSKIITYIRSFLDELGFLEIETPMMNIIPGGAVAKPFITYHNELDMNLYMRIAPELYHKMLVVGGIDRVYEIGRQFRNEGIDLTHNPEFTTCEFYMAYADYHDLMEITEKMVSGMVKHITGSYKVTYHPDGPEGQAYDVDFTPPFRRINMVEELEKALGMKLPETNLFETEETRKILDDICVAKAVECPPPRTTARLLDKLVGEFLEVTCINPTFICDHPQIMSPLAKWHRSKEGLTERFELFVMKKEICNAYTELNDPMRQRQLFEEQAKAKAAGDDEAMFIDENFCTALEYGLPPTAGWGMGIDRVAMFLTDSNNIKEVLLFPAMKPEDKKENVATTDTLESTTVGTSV

B1: 1E8 항체 (anti-MRS monoclonal antibody 1E8) (antibody, mouse IgG2a, kappa, V domains shown)
VH: DVKLQESGPGLVNPSQSLSLTCTVTGYSITSDYAWNWIRQFPGNKLEWMGYISYSGRTSYKSSLKSRISITRDTSKNQFFLELNSVTTEDTATYYCARDYGNFVGYFDVWGAGTTVTVSS
VL: DIVMTQSPSSLAVSVGEKVTMSCKSSQSLLYSSNQKNYLAWYQQKPGQSPKLLIYWASTRESGVPDRFTGSGSGTEFTLTISSVKAEDLAVYYCQQYYSYPTFGGGTKLEIKA
notes: Mouse monoclonal from hybridoma 1E8 (immunogen MRS-AIMP3 co-purified protein); also called 1E8 IgG; 1E8 antibody
In general, Kd refers to the equilibrium constant for the complex coming apart. Lower therefore signals higher affinity. B1: the binding result with His-WRS, with His-GRS, in the assay with His-AIMP1, with His-CRS, in the assay with His-KRS and in the assay with 34S-AIMP2 was “no binding (tested: 500 ng/ml)” each time. Moreover, the binding result in assay [2] was “no binding”. Binding in assay [1] was put at a Kd of 5.42 nM.

B2: 8A12 항체 (anti-MRS monoclonal antibody 8A12) (antibody, mouse IgG2a, kappa, V domains shown)
VH: DVKLQESGPGLVKPSQSLSLTCTVTGYSITSEYAWTWIRQFPGNKLEWMGYINYNGNTNLNPSLKSRISIIRDTSKNQFFLQLNSVTTEDTATYYCARSLWPRGWFAYWGQGTLVTVSA
VL: DIQMTQSPSSMYASLGERVTITCKASQDINSYLSWFQQKPGKSPKTLMYRANRLVDGVPSRFSGSGSGQDYSLTISSLEYEDMGIYYCLQYDEFPRTFGGGTKLEIKA
notes: Mouse monoclonal from hybridoma 8A12 (also named 34-8F2); also called 8A12 IgG; 8A12 antibody
As for B2, the binding result with His-WRS, in the assay with His-GRS, with His-AIMP1, with His-CRS, with His-KRS and in the assay with 34S-AIMP2 was “no binding (tested: 500 ng/ml)” in each case. Further, in assay [2], the binding result is “no binding”. In assay [1], this molecule returned a dissociation constant Kd of 1.56 nM.
